Literature values, collected in article PMC4888498.

Experiments:
[1] = molecular target: T1, TvFL3 Thermoplasma volcanium (Thermoplasma volcanium GSS1) (UniProt Q979L0); experiment: EMSA
T1 sequence: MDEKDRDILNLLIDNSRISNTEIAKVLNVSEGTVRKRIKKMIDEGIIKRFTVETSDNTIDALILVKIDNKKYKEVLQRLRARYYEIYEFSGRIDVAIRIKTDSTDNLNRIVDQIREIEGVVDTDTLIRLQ

[2] = molecular target: T2, Ss-LrpB Sulfolobus solfataricus (Saccharolobus solfataricus P2) (UniProt Q7LX67); experiment: EMSA
T2 sequence: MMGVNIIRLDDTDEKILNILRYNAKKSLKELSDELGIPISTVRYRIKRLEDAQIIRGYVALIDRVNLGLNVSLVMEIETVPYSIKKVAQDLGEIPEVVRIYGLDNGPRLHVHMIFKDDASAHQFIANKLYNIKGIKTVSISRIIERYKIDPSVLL

Sequence | Ka [1] [M⁻¹] | Ka [2] [M⁻¹]
GAAATTAATACGACTCACTATGGGGAGAGAGACGGACGAAATTCGTCCCTGTGTGTCGCTAGTTATTGCTCAGCGGTGG (double strand) [19468044-FFRP-2] | 9e+06 | –
GAAATTAATACGACTCACTATGGGGAGAGAGACGGTCGAAATTCGACCCTGTGTGTCGCTAGTTATTGCTCAGCGGTGG (double strand) [19468044-FFRP-4] | 7.3e+06 | –
GAAATTAATACGACTCACTATGGGGAGAGAGACGTACGAAATTCGTACCTGTGTGTCGCTAGTTATTGCTCAGCGGTGG (double strand) [19468044-FFRP-1] | 1.28e+07 | –
GAAATTAATACGACTCACTATGGGGAGAGAGACGTTCGAAATTCGAACCTGTGTGTCGCTAGTTATTGCTCAGCGGTGG (double strand) [19468044-FFRP-3] | 8.2e+06 | –
GAAATTAATACGACTCACTATGGGGAGAGAGACTTGCAAAATTTGCAACTGTGTGTCGCTAGTTATTGCTCAGCGGTGG (double strand) [19468044-FFRP-7] | – | 3.5e+07
